The results in this text go back to patent US20240240191, “RNA APTAMERS SPECIFIC FOR A-SYNUCLEIN PROTEIN FIBER CONFORMERS” (COMMISSARIAT A L'ENERGIE ATOMIQUE ET AUX ENERGIES …, published 2024).

In data set [1] the target is T1, alpha-synuclein fibril, F-type conformer (fibrils) (UniProt P37840 P37840:1-140). Kind of data set: FP filter; nitrocellulose filter; retained much more than random sequence.
Data set [2] deals with alpha-synuclein fibril P110 (C-terminally truncated) (UniProt P37840 P37840:1-110). The experiment in a line: FP filter; nitrocellulose filter. The conditions noted are these: tags: fibril lacking the 30 C-terminal residues, chain copies: fibril (stated). The procedure:
(§1) The affinity of candidate aptamers as well as that of aptamers from the literature was also measured against different “amyloid” type fibers (Tau1N3R fibers and Aβ40 fibers), in addition to the conformers of F and R α-syn fiber. The affinity of the candidate aptamers against the α-Syn fiber “P110” was also measured. This fiber was made from α-Syn protein truncated from amino acid n° 110 (thus missing the 30 amino acids of the C-terminal domain). The oligonucleotides (aptamers) at 10 nM (hybridized by heat shock to SpG-LNA radioactively marked with P32 for RNA2′F chemistry oligonucleotides, or directly marked with P32 for DNA oligonucleotides) were presented to proteins at 250 nM in a solution of Ts1X containing Igepal at 0.1% and ssDNA added in a 5-1 proportion relative to the oligonucleotides (that is to say between 0.135 μg/ml and 17.325 μg/ml). After 30 min of incubation at 37° C., 25 μL of each mixture is deposited on the nitrocellulose membrane, then filtered. Two washes with Ts1X are then carried out. The amounts of oligonucleotides retained on the nitrocellulose membrane are quantified by exposing the membrane to a photostimulable phosphorus screen. The Kd and Bₘₐₓ were calculated by means of the Prism software using a non-linear regression model analyzing the (specific and non-specific) total affinity of a candidate for the target, assuming that there is only one binding site on the target for the candidate. The measurements were carried out in triplicate (three independent experiments on different days) for the F and R type α-Syn fibers, and in duplicate for the other fibers (Tau1N3R and the fibers Aβ40, and P110) as well as for α-Syn monomers.

A further data set has as its target amyloid-beta 40 fibril (UniProt P05067 P05067:672-711). The experiment in a line: FP filter; nitrocellulose filter. Conditions: tags: Abeta40 fibers, chain copies: fibril (stated). The method, then: as §1
The target in data set [3] is alpha-synuclein fibril, R-type conformer (ribbons) (UniProt P37840 P37840:1-140). Kind of data set: FP filter; nitrocellulose filter; not above random sequence.
For data set [4], the target named is T1, alpha-synuclein fibril, F-type …. Described as above.
Data set [5] shares this target. Kind of data set: FP filter; nitrocellulose filter; Ts1X (10 mM HEPES pH 7.6, 150 mM NaCl, 5 mM KCl, 1.5 mM CaCl2, 1 mM MgCl2), 0.1% Igepal, ssDNA competitor, 37 C; Bmax 52.48 fmol; 3/3.
Data set [6] shares this target. Kind of data set: FP filter; nitrocellulose filter; 10 nM aptamer, 1 uM fibers, Ts1X, 37 C.

amyloid-beta 40 fibril, sequence (P05067 672-711, one chain of several): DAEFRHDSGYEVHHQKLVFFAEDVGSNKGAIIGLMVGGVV

B1: 4F01-G (ssRNA)
RNA: GGGAGAGUAUCCGUUGGAGGCAUAGCAGCACACGACCAGUGUGCCCCACACCCAGUGGUGGUCUGUGGUGUGCAGAUCGGAAGAGCGUCGUGUAGGGCAUUGCCCCAGCGUGACUGCCUA
modifications: 2'-F on all pyrimidines
With B1, the binding result in data set [1] is recorded as “binds”.

B2: F5R2 (ssDNA)
DNA: ATCGAGTGGACGAGTGCCTCCGGTACGAGCTGTCTGATGGGTTTGCGCGCAGGATCCA
On to B2, for which the binding result (in data set [2] (label: 32P); with amyloid-beta 40 fibril (label: 32P)) was “no binding” throughout.

B3: 4F05-G (ssRNA)
RNA: GGGAGAGUAUCCGUUGGAGGCAUGCCGCAGGCUACACCACAGCUUCCCCUUCAGCGUGUUGUGGAUACUCGGCAGAUCGGAAGAGCGUCGUGUAGGGCAUUGCCCCAGCGUGACUGCCUA
modifications: 2'-F on all pyrimidines
On to B3, for which the binding result in data set [1] is reported as “binds”.

B4: 4F03-G (ssRNA)
RNA: GGGAGAGUAUCCGUUGGAGGCAUGCAACAGACGCACCGUACACACAUCUUGGCCGUUGGCUGCCCGACCAGCCAGAUCGGAAGAGCGUCGUGUAGGGCAUUGCCCCAGCGUGACUGCCUA
modifications: 2'-F on all pyrimidines
B4: the binding result in data set [1] is on record as “binds”.

B5: Tau 3146 (ssDNA)
DNA: GCCTGTTGTGAGCCTCCTGTCGAACCTTTGGGGTGGCTTGACGAAGAAAGTAGTTGAGCGTTTATTCTTGTCTCCC
For B5, the binding result in data set [3] and in data set [4] was “no binding” each time.

B6: N30-G (ssRNA)
RNA: GGGAGAGUAUCCGUUGAGGCUGAUCGAUCCACGUCCGACAACGCGUUUACUCGCCAUCAGAUCGGAAGAGCGUCGUGUAGGGCAUUGCCCCAGCGUGACUGCCUA
modifications: 2'-F on all pyrimidines
One may read the Kd as the concentration at which binding is half-saturated. B6: the binding result (in data set [2]; with amyloid-beta 40 fibril) was “no binding” each time. The dissociation constant Kd in data set [5] was 6.62 nM.

B7: 4F02-G (ssRNA)
RNA: GGGAGAGUAUCCGUUGGAGGCAUGCUGGCAGCACGCACCGCUGACCGCUGGCUGCACUAUGCGUGUGGAGUGCAGAUCGGAAGAGCGUCGUGUAGGGCAUUGCCCCAGCGUGACUGCCUA
modifications: 2'-F on all pyrimidines
For the molecule B7, the binding result in data set [1] is recorded as “binds”.

B8: P65-G (P65_10854) (ssRNA)
RNA: GGGAGAGUAUCCGUUGGAGGCAUCGCACAGUGUACACCUACACACAGCAUACCUGUUGGCAUCCCAGGUUGCCAGAUCGGAAGAGCGUCGUGUAGGGCAUUGCCCCAGCGUGACUGCCUA
modifications: 2'-F on all pyrimidines
On to B8, for which the binding result in data set [1] was “binds”.

B9: F124-G (PF_124) (ssRNA)
RNA: GGGAGAGUAUCCGUUGGAGGCAUCACGGACACCUACCCGACGGCAUGUCAGGACACAUGUUGUGCUCCGUGUGAGAUCGGAAGAGCGUCGUGUAGGGCAUUGCCCCAGCGUGACUGCCUA
modifications: 2'-F on all pyrimidines
In the case of B9, in data set [1], the binding result is reported as “binds”.

B10: N124-G (ssRNA)
RNA: GGGAGAGUAUCCGUUGAGGCUGAUCCGACCAUGCUUCAACUUAUACCUCGGGGACUGUAGAUCGGAAGAGCGUCGUGUAGGGCAUUGCCCCAGCGUGACUGCCUA
modifications: 2'-F on all pyrimidines
For the molecule B10, in data set [2], the binding result is recorded as “no binding”.

B11: N3-G (ssRNA)
RNA: GGGAGAGUAUCCGUUGAGGCUGACAACGCGUUUACCUCACACCACGUCAUCCGUUGCCAGAUCGGAAGAGCGUCGUGUAGGGCAUUGCCCCAGCGUGACUGCCUA
modifications: 2'-F on all pyrimidines
B11 showed a binding signal in data set [6] of 3.5 fold over Scr2-G.
